Measured values published in patent publication US20090149381.

Biological target: human recombinant PEDF (pigment epithelium-derived factor) (UniProt P36955)
Sequence (P36955 20-418): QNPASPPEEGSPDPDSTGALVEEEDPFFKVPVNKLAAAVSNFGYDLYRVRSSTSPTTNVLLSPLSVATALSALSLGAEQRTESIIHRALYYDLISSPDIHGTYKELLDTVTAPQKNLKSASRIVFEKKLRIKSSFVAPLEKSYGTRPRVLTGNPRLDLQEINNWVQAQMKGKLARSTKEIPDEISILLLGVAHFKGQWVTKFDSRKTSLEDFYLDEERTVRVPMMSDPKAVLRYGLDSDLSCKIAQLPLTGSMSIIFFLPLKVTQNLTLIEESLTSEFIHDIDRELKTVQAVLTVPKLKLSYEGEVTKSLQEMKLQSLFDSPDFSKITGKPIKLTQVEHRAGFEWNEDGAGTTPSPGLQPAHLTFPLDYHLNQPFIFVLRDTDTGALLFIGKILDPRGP

Sequence of human recombinant MMP-9 (chain, as listed by the source): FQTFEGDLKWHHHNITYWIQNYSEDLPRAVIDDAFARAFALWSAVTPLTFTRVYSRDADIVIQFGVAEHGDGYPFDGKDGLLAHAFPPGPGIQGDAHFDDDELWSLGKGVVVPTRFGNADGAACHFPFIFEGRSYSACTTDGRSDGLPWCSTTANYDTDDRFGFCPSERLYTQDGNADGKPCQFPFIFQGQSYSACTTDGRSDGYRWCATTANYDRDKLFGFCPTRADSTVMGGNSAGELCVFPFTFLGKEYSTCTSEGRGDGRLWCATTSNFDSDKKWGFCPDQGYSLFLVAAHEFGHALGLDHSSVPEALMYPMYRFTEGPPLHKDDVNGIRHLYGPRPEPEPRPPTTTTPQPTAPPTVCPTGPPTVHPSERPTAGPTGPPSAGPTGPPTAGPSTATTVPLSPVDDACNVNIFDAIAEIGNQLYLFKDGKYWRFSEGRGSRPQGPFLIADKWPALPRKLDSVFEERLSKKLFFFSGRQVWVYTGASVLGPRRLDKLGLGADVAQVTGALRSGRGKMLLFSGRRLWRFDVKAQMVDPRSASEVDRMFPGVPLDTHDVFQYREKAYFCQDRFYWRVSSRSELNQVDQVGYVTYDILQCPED

Row | Substance | PEDF fragments observed by SDS-PAGE after protease treatment
1 | MMP-7 | resulted in the generation of multiple PEDF fragments that were observed by SDS-PAGE. These fragments had estimated relative molecular weights of 44 and 42 KDa
2 | activated MMP-2 | resulted in the generation of multiple PEDF fragments that were observed by SDS-PAGE. These fragments had estimated relative molecular weights of 44 and 42 KDa
3 | human recombinant MMP-9 | resulted in the generation of multiple PEDF fragments that were observed by SDS-PAGE. These fragments had estimated relative molecular weights of 44 and 42 KDa
